The values below come from patent publication US10010616B2, “Immunogenic compositions and reagents for preparing” (PURDUE RESEARCH FOUNDATION, priority 2011, dated 2018).

The conditions of data set [1]: reported, Hem et al., Vaccine 1995; cited from earlier work.
The subject of another data set is Mice. Kind of data set: Anti-lysozyme antibody response in mice, conjugated vs unconjugated lysozyme. Format: in vivo. Particulars: 10 μg dose, FIG. 2. As for the experimental part: Compound B-Lysozyme-P2 is prepared in a similar manner using a greater excess of conjugating agent compound B. To determine the magnitude of immunogenic enhancement for the linker-modified protein, a dose response is evaluated comparing a range of doses of compound B-Lysozyme-P2 and AH, to a range of doses of unmodified hen egg lysozyme and AH, according to the following table:
Mice are injected on day 0 and day 21. Blood is collected on day 21 and on day 35. Serum anti-lysozyme IgG and anti-lysozyme IgG subclasses are measured by ELISA assay.
Dose response comparison of conjugated and unconjugated lysozyme immunological response. […] preparations are investigated: (A), lysozyme alone (10 μg dose); (B), lysozyme (10 μg dose)+AH; (C), lysozyme-P2 (2 conjugate load, 10 μg dose)+AH; (D) lysozyme (1 μg dose)+AH; (E), lysozyme-P2 (1 μg dose)+AH.

A short description of data set [2]: Adsorption isotherm on aluminum hydroxide adjuvant. It is filed as binding. Conditions: Rehydragel HPA aluminum hydroxide 20-26 μg/mL, 4° C., micro BCA assay. Here is the method: The phosphorus containing groups described herein bind adjuvants. Compounds containing a phosphorus containing group and a UV chromophore are prepared and quantitative binding data are obtained as adsorption isotherms. Briefly, Rehydragel HPA aluminum hydroxide was suspended (113 μg/mL) in buffer, and varying concentrations of each of compounds E, F, G, and H are added. The suspensions are allowed to equilibrate, and the concentration of each compound in solution at equilibrium is measured. The amount of compound adsorbed (weight/weight) is plotted against the concentration in solution to generate the adsorption isotherm. Adsorption capacity and adsorptive coefficient are calculated for each compound by double reciprocal analysis; the results are summarized in the following table.
Compound B is coupled to egg white lysozyme. […] After centrifugation, the protein concentration in the supernatant is measured by a standard micro bicinchoninic acid protein assay procedure. […]
Adsorption of Compound H (Egg white Lysozyme/Compound B conjugate) by Aluminum Hydroxide. […] The supernatant was analyzed in triplicate for compound H concentration by the micro bicinchoninic acid (BCA) assay. The amount of compound H adsorbed was determined by subtracting the amount remaining in the supernatant from the amount initially present. […]

Regarding “lysozyme: egg white lysozyme (16 kDa MW), unmodified”, the “Complexation by aluminum hydroxide (in words)” value in data set [1] is on record as “negligibly complexed”. Also, in the data set on Mice, the anti-lysozyme antibody production result is “does not show a significant induction of antibody response”. Moreover, the “Affinity for aluminum hydroxide (in words)” value in data set [2] was “poor electrostatic binding with aluminum hydroxide”.
